The term Kd denotes a measure of binding affinity in units of concentration. Low readings indicate a tighter complex, high ones a looser complex.

The text below walks through data of patent publication US20190211317A1, “PEPTIDES AND NANOPARTICLES FOR INTRACELLULAR DELIVERY OF GENOME-EDITING MOLECULES” (Aadigen, LLC, priority 2016, published 2019).

For this assay, the target named is CY5 fluorescently labeled CAS9 protein (S. pyogenes), Q99ZW2. In words: fluorescence titration of 5 nM CY5-CAS9 with increasing peptide, quadratic fit. The settings on record: remark: other sources report otherwise.

Non-standard residues stand in square brackets, D forms with d. No end group written: not given here. βAla = NCCC(=O)O Some results are limits rather than exact numbers.

Sequence of CY5 fluorescently labeled CAS9 protein (S. pyogenes), Q99ZW2 (Q99ZW2 whole entry): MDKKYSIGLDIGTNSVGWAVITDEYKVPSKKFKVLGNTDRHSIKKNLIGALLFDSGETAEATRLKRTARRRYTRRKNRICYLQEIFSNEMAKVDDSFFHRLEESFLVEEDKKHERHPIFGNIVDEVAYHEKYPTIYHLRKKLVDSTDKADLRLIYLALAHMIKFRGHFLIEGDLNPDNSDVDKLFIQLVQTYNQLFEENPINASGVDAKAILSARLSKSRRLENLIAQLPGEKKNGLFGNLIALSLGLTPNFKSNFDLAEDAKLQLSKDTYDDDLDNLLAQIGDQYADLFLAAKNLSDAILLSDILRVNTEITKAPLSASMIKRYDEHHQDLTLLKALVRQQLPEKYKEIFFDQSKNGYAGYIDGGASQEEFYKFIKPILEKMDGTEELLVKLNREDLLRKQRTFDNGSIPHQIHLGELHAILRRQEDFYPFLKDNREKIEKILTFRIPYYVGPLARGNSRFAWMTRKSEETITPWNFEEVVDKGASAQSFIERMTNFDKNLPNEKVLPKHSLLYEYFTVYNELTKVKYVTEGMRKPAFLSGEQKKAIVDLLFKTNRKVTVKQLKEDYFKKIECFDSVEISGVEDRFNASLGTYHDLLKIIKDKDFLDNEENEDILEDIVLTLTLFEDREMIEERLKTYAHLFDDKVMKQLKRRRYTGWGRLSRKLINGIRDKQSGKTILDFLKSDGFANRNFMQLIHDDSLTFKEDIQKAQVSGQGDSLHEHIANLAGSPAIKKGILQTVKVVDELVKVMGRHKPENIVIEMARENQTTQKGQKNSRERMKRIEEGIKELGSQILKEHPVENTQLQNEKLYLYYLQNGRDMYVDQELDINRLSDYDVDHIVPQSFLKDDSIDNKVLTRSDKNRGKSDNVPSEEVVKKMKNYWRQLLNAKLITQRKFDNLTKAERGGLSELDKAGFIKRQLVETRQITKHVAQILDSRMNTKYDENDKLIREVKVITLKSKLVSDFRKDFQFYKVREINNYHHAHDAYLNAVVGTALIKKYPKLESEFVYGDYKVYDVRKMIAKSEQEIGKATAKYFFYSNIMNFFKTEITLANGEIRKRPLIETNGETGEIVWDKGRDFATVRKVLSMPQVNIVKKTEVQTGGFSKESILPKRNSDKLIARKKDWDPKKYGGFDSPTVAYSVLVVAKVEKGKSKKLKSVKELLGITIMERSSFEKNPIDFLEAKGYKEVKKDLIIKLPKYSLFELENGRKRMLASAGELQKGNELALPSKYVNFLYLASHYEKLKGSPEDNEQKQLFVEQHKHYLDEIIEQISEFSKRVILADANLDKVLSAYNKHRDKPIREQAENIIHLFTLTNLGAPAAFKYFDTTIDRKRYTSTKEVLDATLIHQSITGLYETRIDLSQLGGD

[βAla]LWRALWRLWRSLWRLLWKA (also: acetate salt) [VEPEP-6] showed a Kd greater than 100 nM.

In the case of GLWRALWRLLRSLWRLLWKV (also: acetate salt) [CADY], the Kd was greater than 100 nM.
